± gives the standard deviation of the averaged measurements.
Assay: total protein half-life in vivo (active degradation + dilution); higher = more stable protein
[1] = E. coli NCM3722 delta-clpP delta-lon delta-hslV, growth: N-lim chemostat, doubling time 6 h
[2] = E. coli NCM3722 delta-clpP, growth: N-lim chemostat, doubling time 6 h
[3] = E. coli NCM3722 delta-hslV, growth: N-lim chemostat, doubling time 6 h
[4] = E. coli NCM3722 delta-lon, growth: N-lim chemostat, doubling time 6 h
[5] = E. coli NCM3722 delta-smpB, growth: N-lim chemostat, doubling time 6 h
[6] = wild type E. coli NCM3722, growth: C-lim chemostat, doubling time 3 h
[7] = wild type E. coli NCM3722, growth: C-lim chemostat, doubling time 6 h
[8] = wild type E. coli NCM3722, growth: C-lim chemostat, doubling time 12 h
[9] = wild type E. coli NCM3722, growth: N-lim chemostat, doubling time 6 h
[10] = wild type E. coli NCM3722, growth: N-lim chemostat, doubling time 12 h
[11] = wild type E. coli NCM3722, growth: P-lim chemostat, doubling time 6 h
[12] = wild type E. coli NCM3722, growth: P-lim chemostat, doubling time 12 h

Row | Substance | total protein half-life in vivo [1] [h] | total protein half-life in vivo [2] [h] | total protein half-life in vivo [3] [h] | total protein half-life in vivo [4] [h] | total protein half-life in vivo [5] [h] | total protein half-life in vivo [6] [h] | total protein half-life in vivo [7] [h] | total protein half-life in vivo [8] [h] | total protein half-life in vivo [9] [h] | total protein half-life in vivo [10] [h] | total protein half-life in vivo [11] [h] | total protein half-life in vivo [12] [h]
1 | MNNTPRYPQRVRNDLRFRELTVLRVERISAGFQRIVLGGEALDGFTSRGFDDHSKLFFPQPDAHFVPPTVTEEGIVWPEGPRPPSRDYTPLYDELRHELAIDFFIHDGGVASGWAMQAQPGDKLTVAGPRGSLVVPEDYAYQLYVCDESGMPALRRRLETLSKLAVKPQVSALVSVRDNACQDYLAHLDGFNIEWLAHDEQAVDARLAQMQIPADDYFIWITGEGKVVKNLSRRFEAEQYDPQRVRAAAYWHAK | 4.98 ± 0.54 | 3.77 ± 0.45 | 4.7 ± 0.13 | 5.34 ± 0.58 | 4.11 ± 1.2 | 3.36 ± 0.12 | 6.21 ± 1.1 | 9.46 ± 0.69 | 4.38 ± 0.69 | 7.07 | 5.663 ± 0.053 | 12.1 ± 0.45
2 | MMMGEVQSLPSAGLHPALQDALTLALAARPQEKAPGRYELQGDNIFMNVMTFNTQSPVEKKAELHEQYIDIQLLLNGEERILFGMAGTARQCEEFHHEDDYQLCSTIDNEQAIILKPGMFAVFMPGEPHKPGCVVGEPGEIKKVVVKVKADLMA | 5.11 ± 0.56 | 5.65 | 4.7878 ± 0.0042 | 5.28 | 4.8 ± 0.44 | 2.61 ± 0.37 | 5.51 ± 0.72 | 9.27 ± 2.2 |  | 7.67 | 4.2 ± 0.51 | 10.3 ± 0.17
3 | MNAIWIAVAAVSLLGLAFGAILGYASRRFAVEDDPVVEKIDEILPQSQCGQCGYPGCRPYAEAISCNGEKINRCAPGGEAVMLKIAELLNVEPQPLDGEAQEITPARMVAVIDENNCIGCTKCIQACPVDAIVGATRAMHTVMSDLCTGCNLCVDPCPTHCISLQPVAETPDSWKWDLNTIPVRIIPVEHHA | 2.26 ± 0.093 | 1.52 |  |  | 0.89 |  | 0.945 |  |  |  |  | 1.92 ± 0.49
4 | P0AES2 | 4.25 ± 0.51 | 3.729 ± 0.03 | 3.64 ± 0.5 | 3.41 ± 0.14 | 3.21 ± 0.19 | 3.03 ± 0.049 | 5.26 ± 0.72 | 8.83 ± 0.4 | 3.14 ± 0.086 | 4.57 ± 0.082 | 5.38 ± 0.73 | 8.99 ± 0.022
5 | MSNNALQTIINARLPGEEGLWQIHLQDGKISAIDAQSGVMPITENSLDAEQGLVIPPFVEPHIHLDTTQTAGQPNWNQSGTLFEGIERWAERKALLTHDDVKQRAWQTLKWQIANGIQHVRTHVDVSDATLTALKAMLEVKQEVAPWIDLQIVAFPQEGILSYPNGEALLEEALRLGADVVGAIPHFEFTREYGVESLHKTFALAQKYDRLIDVHCDEIDDEQSRFVETVAALAHHEGMGARVTASHTTAMHSYNGAYTSRLFRLLKMSGINFVANPLVNIHLQGRFDTYPKRRGITRVKEMLESGINVCFGHDDVFDPWYPLGTANMLQVLHMGLHVCQLMGYGQINDGLNLITHHSARTLNLQDYGIAAGNSANLIILPAENGFDALRRQVPVRYSVRGGKVIASTQPAQTTVYLEQPEAIDYKR | 6.27 ± 0.14 | 5.838 ± 0.02 | 5.57 ± 0.45 | 6.13 ± 0.073 | 5.64 ± 0.32 | 2.9 ± 0.17 | 5.8 ± 0.1 | 14.3 ± 0.34 | 5.43 ± 0.29 | 12.3 ± 1.4 |  | 12.7 ± 0.35
6 | MKINQPAVAGTLESGDVMIRIAPLDTQDIDLQINSSVEKQFGDAIRTTILDVLARYNVRGVQLNVDDKGALDCILRARLEALLARASGIPALPWEDCQ |  |  |  |  | 1.09 |  |  |  |  |  |  | 
7 | MFGKLSLDAVPFHEPIVMVTIAGIILGGLALVGLITYFGKWTYLWKEWLTSVDHKRLGIMYIIVAIVMLLRGFADAIMMRSQQALASAGEAGFLPPHHYDQIFTAHGVIMIFFVAMPFVIGLMNLVVPLQIGARDVAFPFLNNLSFWFTVVGVILVNVSLGVGEFAQTGWLAYPPLSGIEYSPGVGVDYWIWSLQLSGIGTTLTGINFFVTILKMRAPGMTMFKMPVFTWASLCANVLIIASFPILTVTVALLTLDRYLGTHFFTNDMGGNMMMYINLIWAWGHPEVYILILPVFGVFSEIAATFSRKRLFGYTSLVWATVCITVLSFIVWLHHFFTMGAGANVNAFFGITTMIIAIPTGVKIFNWLFTMYQGRIVFHSAMLWTIGFIVTFSVGGMTGVLLAVPGADFVLHNSLFLIAHFHNVIIGGVVFGCFAGMTYWWPKAFGFKLNETWGKRAFWFWIIGFFVAFMPLYALGFMGMTRRLSQQIDPQFHTMLMIAASGAVLIALGILCLVIQMYVSIRDRDQNRDLTGDPWGGRTLEWATSSPPPFYNFAVVPHVHERDAFWEMKEKGEAYKKPDHYEEIHMPKNSGAGIVIAAFSTIFGFAMIWHIWWLAIVGFAGMIITWIVKSFDEDVDYYVPVAEIEKLENQHFDEITKAGLKNGN [P0ABI8] | 6.54 ± 0.5 |  | 6.89 ± 0.66 | 6.02 ± 0.071 | 6.54 ± 0.66 |  | 5.86 ± 0.97 | 14.5 ± 0.29 | 5.84 ± 0.49 | 11.9 ± 0.69 | 6.04 ± 0.13 | 
8 | MTTRVIALDLDGTLLTPKKTLLPSSIEALARAREAGYQLIIVTGRHHVAIHPFYQALALDTPAICCNGTYLYDYHAKTVLEADPMPVIKALQLIEMLNEHHIHGLMYVDDAMVYEHPTGHVIRTSNWAQTLPPEQRPTFTQVASLAETAQQVNAVWKFALTHDDLPQLQHFGKHVEHELGLECEWSWHDQVDIARGGNSKGKRLTKWVEAQGWSMENVVAFGDNFNDISMLEAAGTGVAMGNADDAVKARANIVIGDNTTDSIAQFIYSHLI | 5.16 ± 0.18 | 0.903 ± 0.047 | 0.971 ± 0.12 | 1.19 ± 0.11 | 1.09 ± 0.013 | 2.05 ± 0.096 | 3.48 ± 1.5 | 3.08 ± 0.64 | 1.05 ± 0.02 | 1.52 ± 0.12 | 3 ± 0.29 | 4.84 ± 0.26

— the supplement of paper PMC11246515
